Test results taken from patent US10323078B2, “Isolated peptides and fragments thereof from fibrinogen for use as drugs, particularly in skin inflammatory diseases” (Universite Paris Descartes, priority 2015, dated 2019).

Columns and labels:
Type in all cases: cell-based, human
NHDK cells = test: O2°− production by P. acnes-stimulated NHDK; conditions: 0.87 to 7 μM
Description: (§1) For experiences of stimulation with P. acnes, cells were incubated with the P. acnes suspension adjusted at the appropriate concentration, pre-treated for 1 h at 37° C. or not with fibrinogen recombinant peptides Fg1 and Fg2 at the concentrations 0.87, 1.75, 3.5 or 7 μM for the desired period of time at 37° C. in 5% CO2.
(§2) All cells lines (5·10^4 to 10^5 cells/well) were seeded in 96-well plates (Corning Costar, Brumath, France) and treated as previously described. After stimulation, cells were washed three times in PBS and incubated with 100 μl per wells of 5 μM DHE (for determination of O2^●−) or 5 μM H2-DCFDA (for determination of H2O2) for 30 min as described previously and fluorescence intensity was recorded every hour over a period of 5 h. Fluorescence excitation/emission maxima were for DHE: 480/610 nm and for H2-DCFDA: 507/525 nm. At the end of the experiment, the number of adherent cells was evaluated by the crystal violet assay as described below. O2^●−, and H2O2 were assayed by spectrofluorimetry on a Fusion spectrofluorimeter (PackardBell, Paris, France). Levels of ROS were calculated in each sample as follows: reactive oxygen species rate (arbitrary units/min/10^6 cells)=(fluorescence intensity [arbitrary units] at T5h—fluorescence intensity [arbitrary units] at To/300 minutes/number of adherent cells as measured by the crystal violet assay, and were expressed as arbitrary unit (A.U.).
(§3) To assess the efficacy of Fg1 recombinant peptide, the production of O2^∘− and H2O2 by HaCaT cells NHDK, THP-1, MRC5 and HDF stimulated by pretreated P. acnes strains 6919, RON and PIE was measured. The amount of ROS produced was compared to that produced by the stimulated cells with untreated bacteria. Production baseline was obtained by measuring ROS on unstimulated cells. The production of IL-1ß, IL-8, IL-12 and TNF-α was also measured in all conditions cited above. The measurement of the production of ROS is performed by spectrofluorimetry in the presence of specific fluorochromes directly on the monolayer cell. Measurement of cytokine production was performed in parallel on the cell culture supernatant.
(§4) Two sets of experiments were implemented: 1) The cells were stimulated (18 h at 37° C.) by P. acnes strains previously pretreated with Fg1 and Fg2 peptides at the final concentrations ranging from 0.87 to 7 μM for 1 h at 37° C.; and 2) The cells were pretreated first with Fg1 and Fg2 peptides at the final concentrations ranging from 0.87 to 7 μM for 24 h at 37° C. and stimulated (18 h at 37° C.) by P. acnes strains.

HaCaT cells = test: IL-8 production by P. acnes-stimulated HaCaT (ELISA); conditions: 0.87 to 7 μM
Description: as §1
(§5) Human IL-1ß, IL-8, IL-12, hBD-2, and TNF-α protein concentration was measured in the supernatants of stimulated cells using various ELISA Set kits (Ready-Set-Go kit from eBioscience for acne experiments, and for psoriasis experiments the Duo set IL-8 kit from R&D Systems and the BD-2 Human Development (hBD-2) from Peprotech) according to the manufacturer's instructions. We used serial dilutions of recombinant human IL-1ß, IL-8, IL-12 and TNF-α for standard curve. The optical density was determined at 450 nm at a wavelength correction of 540 nm.
as §3
as §4, with “strains. […]” for “strains.”
Immortalized keratinocytes HaCaT cell were seeded in 96-well plates at 10^5 cells/well (Corning Costar, Brumath, France) and stimulated with P. acnes 6919 strain (O.D.620 nm=0.3) pretreated 1 h at 37° C. with the Fg1 and Fg1.1.1 peptides at the concentrations of 2.5, 5 and 10 μM for 18 h at 37° C. under 5% CO2. Then, culture supernatant was removed and the IL-8 concentration was measured by ELISA assay (eBioscience).

HDF cells [1] = test: IL-8 production by P. acnes-stimulated HDF (ELISA); conditions: 0.87 to 7 μM
Description: as §1, §5, §3, §4

MRC5 cells [2] = test: IL-8 production by P. acnes-stimulated MRC5 (ELISA); conditions: 0.87 to 7 μM
Description: FIG. 15: Dose-dependent inhibition of IL-8 production by fibroblast stimulated by P. acnes pre-treated by recombinant peptide. MRC5 cells were incubated for 18 h with P. acnes RON strain at a concentration adjusted to 0.2 of absorbance at 600 nm (blue bar) and with P. acnes pretreated with recombinant peptide Fg1 (light gray bar) and Fg2 (dark gray bar). IL-8 concentration was measured by ELISA as described in Materials and Methods. Control experiment was done on unstimulated HaCaT cell (red bar). Data are means±S.D. of three separate experiments. Statistical significance is indicated by * (P<0.05), ** (P<0.01), *** (P<0.001), and **** (P<0.0001), respectively.
as §1, §5, §3, §4

MRC5 cells [3] = test: O2°− production by P. acnes-stimulated MRC5; conditions: bacteria first pretreated, 0.87 to 7 μM
Description: as §1, §2
as §3, with “Measurement of cytokine production was performed in parallel on the cell culture supernatant.” left out

HDF cells [4] = test: O2°− production by P. acnes-stimulated HDF; conditions: 0.87 to 7 μM
Description: as §1, §2, §3, §4

HDF cells [5] = test: TNF-α production by P. acnes-stimulated HDF (ELISA); conditions: 0.87 to 7 μM
Description: as §1, §5, §3, §4

[6] = P. acnes 6919, set I, bacteria first pretreated
[7] = P. acnes 6919, set II, cells first pretreated
[8] = P. acnes PIE, set I, bacteria first pretreated
[9] = P. acnes PIE, set II, cells first pretreated
[10] = P. acnes RON, set I, bacteria first pretreated
[11] = P. acnes RON, set II, cells first pretreated

B1: MKRMVSWSFHKLKTMKHLLLLLLCVFLVKSQGVNDNEEGFFSARGHRPLDKKREEAPSLRPAPPPISGGGYRARPAKAAATQKKVERKAPDAGGCLHADPDLGVLC (protein)
chain: MKRMVSWSFHKLKTMKHLLLLLLCVFLVKSQGVNDNEEGFFSARGHRPLDKKREEAPSLRPAPPPISGGGRARPAKAAATQKKVERKAPDAGGCLHADPDLGVLCMKRMVSWSFHKLKTMKHLLLLLLCVFLVKSQGVNDNEEGFFSARGHRPLDKKREEAPSLRPAPPPISGGGYRARPAKAAATQKKVERKAPDAGGCLHADPDLGVLC
modifications: GST fusion; fragment Fg1
notes: fragment of Bß chain of human fibrinogen having 106 amino acids; recombinant GST-fused peptide expressed in E. coli
pos: Inhibition of Superoxide anion (O2°−) production (NHDK cells; [6]) | Inhibition of Superoxide anion (O2°−) production (NHDK cells; [7]) | Inhibition of Superoxide anion (O2°−) production (NHDK cells; [8]) | Inhibition of Superoxide anion (O2°−) production (NHDK cells; [9]) | Inhibition of Superoxide anion (O2°−) production (NHDK cells; [10]) | Inhibition of Superoxide anion (O2°−) production (NHDK cells; [11]) | Inhibition of Interleukine 8 (IL-8) production (HaCaT cells; [6]) | Inhibition of Interleukine 8 (IL-8) production (HaCaT cells; [7]) | Inhibition of Interleukine 8 (IL-8) production (HaCaT cells; [8]) | Inhibition of Interleukine 8 (IL-8) production (HaCaT cells; [9]) | Inhibition of Interleukine 8 (IL-8) production (HaCaT cells; [10]) | Inhibition of Interleukine 8 (IL-8) production (HaCaT cells; [11]) | Inhibition of Interleukine 8 (IL-8) production (HDF cells [1]; [6]) | Inhibition of Interleukine 8 (IL-8) production (HDF cells [1]; [7]) | Inhibition of Interleukine 8 (IL-8) production (HDF cells [1]; [8]) | Inhibition of Interleukine 8 (IL-8) production (HDF cells [1]; [9]) | Inhibition of Interleukine 8 (IL-8) production (HDF cells [1]; [10]) | Inhibition of Interleukine 8 (IL-8) production (HDF cells [1]; [11]) | Inhibition of Interleukine 8 (IL-8) production (MRC5 cells [2]; [6]) | Inhibition of Interleukine 8 (IL-8) production (MRC5 cells [2]; [7]) | Inhibition of Interleukine 8 (IL-8) production (MRC5 cells [2]; [8]) | Inhibition of Interleukine 8 (IL-8) production (MRC5 cells [2]; [9]) | Inhibition of Interleukine 8 (IL-8) production (MRC5 cells [2]; [10]) | Inhibition of Interleukine 8 (IL-8) production (MRC5 cells [2]; [11]) | Inhibition of Superoxide anion (O2°−) production (MRC5 cells [3]; P. acnes 6919, set I) | Inhibition of Superoxide anion (O2°−) production (MRC5 cells [3]; P. acnes PIE, set I) | Inhibition of Superoxide anion (O2°−) production (MRC5 cells [3]; P. acnes RON, set I) | Inhibition of Superoxide anion (O2°−) production (HDF cells [4]; [6]) | Inhibition of Superoxide anion (O2°−) production (HDF cells [4]; [7]) | Inhibition of Superoxide anion (O2°−) production (HDF cells [4]; [8]) | Inhibition of Superoxide anion (O2°−) production (HDF cells [4]; [9]) | Inhibition of Superoxide anion (O2°−) production (HDF cells [4]; [10]) | Inhibition of Superoxide anion (O2°−) production (HDF cells [4]; [11]) | Inhibition of Interleukine TNF alpha (TNF-α) production (HDF cells [5]; [6]) | Inhibition of Interleukine TNF alpha (TNF-α) production (HDF cells [5]; [7]) | Inhibition of Interleukine TNF alpha (TNF-α) production (HDF cells [5]; [8]) | Inhibition of Interleukine TNF alpha (TNF-α) production (HDF cells [5]; [9]) | Inhibition of Interleukine TNF alpha (TNF-α) production (HDF cells [5]; [10]) | Inhibition of Interleukine TNF alpha (TNF-α) production (HDF cells [5]; [11])
